Laboratory results: US20120301476A1 (TORAY INDUSTRIES, published 2012)

B1: anti-CAPRIN-1 mouse monoclonal antibody #4 (antibody, V domains shown)
VH: GAELVRSGASVKMSCKASGYSFTDYNMYWVKQTPGQGLEWIGYIYPGNGGTNYNQKFKGKATLTADTSSSTAYMQISSLTSEDSAVYFCARDYDDGGYAMDYWGQGTTVTVSS
VL: DIQMTQSPASLSASVGETVTITCRASGNIHNYLTWYQQKQGKSPQLLVYNAKTLADGVPSRFSGSGSGTQYSLKINRLQPEDFGSYYCQHFWNIPWTFGGGTKLNSR
B2: anti-CAPRIN-1 mouse monoclonal antibody #5 (antibody, V domains shown)
VH: GAELVRSGASVKMSCKASGYSFTDYNMYWVKQTPGQGLEWIGYIYPGNGGTNYNQKFKGKATLTADTSSSTAYMQISSLTSEDSAVYFCARDYDDGGYAMDYWGQGTTVTVSS
VL: DIQMTQSPASLSASVGETVTITCRASGNIHNYLTWYQQKQGKSPQLLVYNAKTLADGVPSRFSGSGSGTQYSLKINRLQPEDFGSYYCQHFWNIPWTFGGGTKLNSR
notes: Mouse hybridoma antibody; detected with anti-mouse IgG
B3: anti-CAPRIN-1 mouse monoclonal antibody #6 (antibody, V domains shown)
VH: DAELVKPGASVKISCKASGYTFTDHSIHWVQQKPEQGLEWIGYISPGNGNIKYNEKFKGKATLTADKSSSTAYMQLNSLTSEDSAVYFCKRSLGRGGPYYFDYWGQGTTVTVSS
VL: DIVLTQAAPSLPVTPGESVSISCRSSKSLLHSNGNTYLYWFLQRPGQSPQLLIYRMSNLASGVPDRFSGSGSGTAFTLRISRVEAEDVGVYYCMQHREYPVTFGSGPN
notes: as for B2
B4: anti-CAPRIN-1 mouse monoclonal antibody #3 (antibody, V domains shown)
VH: GGGLVKPGGSLKLSCAASGFTFSSYGMSWVRQTPEKRLEWVATISSGGSYTYYPDSVKGRFTISRDNAKNTLYLQMSSLRSEDTAMYYCASLASYYFDYWGQGTTLTVSS
VL: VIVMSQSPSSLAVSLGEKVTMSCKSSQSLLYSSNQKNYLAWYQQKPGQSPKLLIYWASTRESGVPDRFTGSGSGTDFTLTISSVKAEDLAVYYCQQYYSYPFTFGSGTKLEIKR

Assays:
[1] = target: T1, human CAPRIN-1 protein on the cell surfaces of human cancer cell lines and in human cancer tissues (human, UniProt Q14444 2-709); test: flow cytometry on the listed human cancer cell lines, culture supernatant, against negative control
T1 construct: whole, on cells; Endogenous protein of human cancer cell lines (flow cytometry, ADCC, CDC) and of human cancer tissue sections (immunohistochemistry); also called CAPRIN-1 protein expressed on the cell membrane surfaces
T1 sequence (looked up): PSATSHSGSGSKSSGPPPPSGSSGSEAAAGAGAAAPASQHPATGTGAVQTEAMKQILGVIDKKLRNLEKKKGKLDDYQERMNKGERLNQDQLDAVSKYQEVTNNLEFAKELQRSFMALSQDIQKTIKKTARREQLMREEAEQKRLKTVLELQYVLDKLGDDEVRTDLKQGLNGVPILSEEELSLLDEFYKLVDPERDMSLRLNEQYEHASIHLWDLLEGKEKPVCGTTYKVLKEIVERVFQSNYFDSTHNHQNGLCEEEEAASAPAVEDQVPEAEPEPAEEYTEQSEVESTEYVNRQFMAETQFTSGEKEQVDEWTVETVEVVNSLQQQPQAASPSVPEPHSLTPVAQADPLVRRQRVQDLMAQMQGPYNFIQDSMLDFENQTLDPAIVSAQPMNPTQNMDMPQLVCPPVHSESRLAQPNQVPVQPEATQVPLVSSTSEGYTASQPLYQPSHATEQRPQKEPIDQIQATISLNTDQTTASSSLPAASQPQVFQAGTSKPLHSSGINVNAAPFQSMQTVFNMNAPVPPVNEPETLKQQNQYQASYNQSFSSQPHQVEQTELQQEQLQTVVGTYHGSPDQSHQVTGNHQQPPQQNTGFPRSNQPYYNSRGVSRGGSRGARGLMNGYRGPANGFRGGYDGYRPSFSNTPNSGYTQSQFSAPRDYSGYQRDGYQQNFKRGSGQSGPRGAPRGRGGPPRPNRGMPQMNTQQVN
Method: 10⁶ cells of each cell line were centrifuged in a 1.5 ml microcentrifuge tube. Each cell culture supernatant (100 μl) of CHO-K1 cells containing #1 obtained in (2) above and hybridomas producing #2, #3, #4, #5, and #6 obtained in Example 3 was added and then left to stand on ice for 1 hour. After washing with PBS, a FITC-labeled goat anti-human IgG (H+L) antibody (SouthernBiotech) and a FITC-labeled anti-mouse IgG (H+L) antibody (Invitrogen) diluted 500-fold with PBS containing 0.1% FBS were added and then left to stand on ice for 1 hour. After washing with PBS, fluorescence intensity was measured using a FACS Calibur (Becton, Dickinson). Meanwhile, procedures similar to the above were performed using a culture supernatant of CHO-K1 cells into which no antibody gene had been introduced and medium for culturing hybridomas, so that a negative control sample was prepared. […] Specifically, when the antibody #1 was used, fluorescence intensity was enhanced to 4700% in the case of SK-BR-3 and 5500% in the case of MDA-MB-231V. Also, when the antibodies #2, #3, #4, #5, and #6 were used, fluorescence intensity was enhanced. […] The percentage of enhancement in the above fluorescence intensity was expressed as percentage of increase in mean fluorescence intensity (MFI level) in each type of cell and calculated by the following formula.

[2] = target: T1, human CAPRIN-1 protein on the cell …; test: cell-based or functional assay
[3] = target: T2, peptide of SEQ ID NO: 69 (partial sequence in the polypeptide of SEQ ID NO: 37) (human); test: ELISA on immobilised synthetic peptides
T2 peptide: QQPQAASPSVPE
Method: (§1) Each peptide was dissolved in 0.1M sodium carbonate buffer (pH 9.6) at a concentration of 30 μg/ml, added to a 96-well plate (Nunc, Product No. 436006) at 100 μl per well, and then left to stand at 4° C. overnight. The solution was discarded, 10 mM ethanolamine/0.1M sodium carbonate buffer (PH 9.6) was added at 200 μl per well, and then the plate was left to stand at room temperature for 1 hour. The solution was discarded, the plate was washed twice with PBS (PBST) containing 0.5% Tween20, so that the plate with each peptide immobilized thereto was prepared.
(§2) A cell culture supernatant containing the human-chicken chimeric monoclonal antibody (#1) and the mouse monoclonal antibodies (#2, #3, #4, #5, and #6) obtained in Example 4 (2) was added to the plate at 50 μl per well. After 1 hour of shaking at room temperature, the solution was removed, and then the plate was washed three times with PBST. Next, an HRP-labeled anti-human IgG (Invitrogen) antibody diluted 3000- to 4000-fold with PBST (a secondary antibody solution) was added to each well of the human-chicken chimeric monoclonal antibody and an HRP-labeled anti-mouse IgG (Invitrogen) antibody diluted 3000- to 4000-fold with PBST (a secondary antibody solution) was added to each well of the mouse monoclonal antibody, at 50 μl per well, and then the solution was removed, followed by six times of washing with PBST.
(§3) A TMB substrate solution (Thermo) was added at 100 μl per well, and the plate was left to stand for 15 to 30 minutes for coloring reaction. After color development, 1N sulfuric acid was added at 100 μl per well to stop the reaction and then absorbances at 450 nm and 595 nm were measured using an absorption spectrometer. As a result, the polypeptide of SEQ ID NO: 37 was identified as a CAPRIN-1 partial sequence that is recognized by all of the anti-CAPRIN-1 monoclonal antibodies #1 to #6. Furthermore, the peptide of SEQ ID NO: 69 was identified as a partial sequence in the above polypeptide of SEQ ID NO: 37, which is recognized by the monoclonal antibodies #1, #4, and #5. […]

[4] = target: T3, peptide of SEQ ID NO: 70 (partial sequence in the polypeptide of SEQ ID NO: 37) (human); test: ELISA on immobilised synthetic peptides
T3 peptide: FTSGEKEQVDEW
Method: as §1, §2, §3

| Binder | percentage of increase in mean fluorescence intensity [1] [%] | cytotoxic activity (ADCC) against A549 [2] [%] | cytotoxic activity (ADCC) against ACHN [2] [%] | cytotoxic activity (ADCC) against AML5 [2] [%] | cytotoxic activity (ADCC) against Caki-1 [2] [%] | cytotoxic activity (ADCC) against KYSE180 [2] [%] | cytotoxic activity (ADCC) against MDA-MB-157 [2] [%] | cytotoxic activity (ADCC) against MNK28 [2] [%] | cytotoxic activity (ADCC) against MNK45 [2] [%] | cytotoxic activity (ADCC) against QG56 [2] [%] | cytotoxic activity (ADCC) against Ramos [2] [%] | cytotoxic activity (ADCC) against SW480 [2] [%] | cytotoxic activity (ADCC) against SW756 [2] [%] | cytotoxic activity (ADCC) against T24 [2] [%] | cytotoxic activity (ADCC) against T98G [2] [%] | cytotoxic activity (ADCC) against U373 [2] [%] | binding result [3] | binding result [4] |
| --- | --- | --- | --- | --- | --- | --- | --- | --- | --- | --- | --- | --- | --- | --- | --- | --- | --- | --- |
| B1 | ≥ 20 | ≥ 24 | ≥ 14 | ≥ 10 | ≥ 23 | ≥ 22 | 31 | ≥ 15 | ≥ 10 | ≥ 20 | ≥ 10 | ≥ 17 | ≥ 16 | ≥ 18 | ≥ 12 | ≥ 16 |  |  |
| B2 | ≥ 20 | ≥ 24 | ≥ 14 | ≥ 10 | ≥ 23 | ≥ 22 | 30.9 | ≥ 15 | ≥ 10 | ≥ 20 | ≥ 10 | ≥ 17 | ≥ 16 | ≥ 18 | ≥ 12 | ≥ 16 | binds |  |
| B3 | ≥ 20 | ≥ 24 | ≥ 14 | ≥ 10 | ≥ 23 | ≥ 22 | 19 | ≥ 15 | ≥ 10 | ≥ 20 | ≥ 10 | ≥ 17 | ≥ 16 | ≥ 18 | ≥ 12 | ≥ 16 |  | binds |
| B4 | ≥ 20 | ≥ 24 | ≥ 14 | ≥ 10 | ≥ 23 | ≥ 22 | 32.4 | ≥ 15 | ≥ 10 | ≥ 20 | ≥ 10 | ≥ 17 | ≥ 16 | ≥ 18 | ≥ 12 | ≥ 16 |  |  |
